# Literature values in PMC11231438.
# Biological target: plasminogen (Homo sapiens) (UniProt P00747)
# UniProt P00747, sequence (P00747 20-810): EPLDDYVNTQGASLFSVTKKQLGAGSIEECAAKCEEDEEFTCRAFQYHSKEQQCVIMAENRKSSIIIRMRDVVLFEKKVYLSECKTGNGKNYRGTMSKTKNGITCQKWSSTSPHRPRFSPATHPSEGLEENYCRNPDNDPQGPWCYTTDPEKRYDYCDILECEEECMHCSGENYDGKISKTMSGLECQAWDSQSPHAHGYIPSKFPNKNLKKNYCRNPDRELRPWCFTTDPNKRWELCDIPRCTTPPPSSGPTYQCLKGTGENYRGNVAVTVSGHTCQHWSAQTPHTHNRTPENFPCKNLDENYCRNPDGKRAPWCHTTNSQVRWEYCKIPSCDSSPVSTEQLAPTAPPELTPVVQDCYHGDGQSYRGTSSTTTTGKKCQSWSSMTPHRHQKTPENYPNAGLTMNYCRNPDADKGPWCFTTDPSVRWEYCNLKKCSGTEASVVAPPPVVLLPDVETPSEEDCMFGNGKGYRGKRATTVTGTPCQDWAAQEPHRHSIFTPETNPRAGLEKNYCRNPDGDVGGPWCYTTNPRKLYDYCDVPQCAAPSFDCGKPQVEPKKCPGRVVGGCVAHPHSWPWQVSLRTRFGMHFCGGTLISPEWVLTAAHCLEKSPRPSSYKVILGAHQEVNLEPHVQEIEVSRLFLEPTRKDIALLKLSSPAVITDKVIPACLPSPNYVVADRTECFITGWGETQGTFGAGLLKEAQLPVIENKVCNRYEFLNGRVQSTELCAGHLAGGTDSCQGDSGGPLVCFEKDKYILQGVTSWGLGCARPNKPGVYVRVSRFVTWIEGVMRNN
substance,measurement,value
enolase (from UniProt Q96X30),Kd,530 nM
